These substances were tested against hemagglutinin (HA) of influenza A/Hong Kong/45/2019 H3N2 (influenza A virus A/Hong Kong/45/2019 (H3N2)) (assay: cell-based or functional assay).

In the case of negative control IgG (antibody), the HAI titer is reported as < 1 titer.

The substances below were run against hemagglutinin (HA) of influenza B/Phuket/3073/2013 B-Yam (influenza B virus B/Phuket/3073/2013) (assay: cell-based or functional assay).

First: SAB-176 (antibody)
Second: SAB-176 Lot 3 (antibody)
The HAI titer of the first is higher: 512 titer for the first, 128 titer for the second.

negative control IgG (antibody) was tested, and the HAI titer was < 1 titer.

SAB-176 Lot 3 (antibody) showed an HAI titer ratio of SAB-176 to hIVIG of 16 X.

These substances were tested against hemagglutinin (HA) of influenza A/Kansas/14/2017 H3N2 (influenza A virus A/Kansas/14/2017 (H3N2)) (assay: cell-based or functional assay).

Compared with SAB-176 Lot 3 (antibody), negative control IgG (antibody) is lower in HAI titer: 512 titer for the first, < 1 titer for the second.

Substance SAB-176 Lot 3 (antibody) has an HAI titer ratio of SAB-176 to hIVIG of 16 to 128 X.

The substances below were run against hemagglutinin (HA) of influenza A/Cambodia/e0826360/2020 H3N2 (influenza A virus A/Cambodia/e0826360/2020 (H3N2)) (assay: cell-based or functional assay).

Compared with SAB-176 Lot 3 (antibody), negative control IgG (antibody) is lower in HAI titer: 256 titer for the first, < 1 titer for the second.

Work on SAB-176 Lot 3 (antibody) yielded an HAI titer ratio of SAB-176 to hIVIG of 8 to 16 X.

Each substance was assayed against hemagglutinin (HA) of influenza A/Switzerland/9715293/2013 H3N2 (influenza A virus A/Switzerland/9715293/2013 (H3N2)) (assay: cell-based or functional assay).

Going from SAB-176 (antibody) to negative control IgG (antibody), the HAI titer falls from > 2048 titer to < 1 titer.

These substances were tested against hemagglutinin (HA) of influenza B/Colorado/06/2017 B-Vic (influenza B virus B/Colorado/06/2017) (assay: cell-based or functional assay).

Going from SAB-176 (antibody) to SAB-176 Lot 3 (antibody), the HAI titer falls from 512 titer to 256 titer.

For negative control IgG (antibody), the HAI titer was < 1 titer.

Work on SAB-176 Lot 3 (antibody) yielded an HAI titer ratio of SAB-176 to hIVIG of 16 to 32 X.

Each substance was assayed against hemagglutinin (HA) of influenza B/Maryland/15/2016 B-Vic (influenza B virus B/Maryland/15/2016) (assay: cell-based or functional assay).

First: SAB-176 (antibody)
Second: SAB-176 Lot 3 (antibody)
The HAI titer of the first is higher: 512 titer for the first, 128 titer for the second.

For negative control IgG (antibody), the HAI titer was < 1 titer.

SAB-176 Lot 3 (antibody) showed an HAI titer ratio of SAB-176 to hIVIG of 8 to 16 X.

These substances were tested against hemagglutinin (HA) of influenza B/Brisbane/60/2008 B-Vic (influenza B virus B/Brisbane/60/2008) (assay: cell-based or functional assay).

First: SAB-176 (antibody)
Second: negative control IgG (antibody)
The HAI titer of the first is higher: 64 titer for the first, < 1 titer for the second.

These substances were tested against hemagglutinin (HA) of influenza A/Singapore/INFIMH-16-0019/2016 H3N2 (influenza A virus A/Singapore/INFIMH-16-0019/2016 (H3N2)) (assay: cell-based or functional assay).

SAB-176 (antibody) and SAB-176 Lot 3 (antibody) are the same in HAI titer: 512 titer for the first, 512 titer for the second.

For negative control IgG (antibody), the HAI titer was < 1 titer.

In the case of SAB-176 Lot 3 (antibody), the HAI titer ratio of SAB-176 to hIVIG is reported as 8 to 32 X.

What follows are substances tested against hemagglutinin (HA) of influenza A/Victoria/2570/2019 H1N1 (influenza A virus A/Victoria/2570/2019 (H1N1)) (assay: cell-based or functional assay).

Going from SAB-176 Lot 3 (antibody) to negative control IgG (antibody), the HAI titer falls from 256 titer to < 1 titer.

In the case of SAB-176 Lot 3 (antibody), the HAI titer ratio of SAB-176 to hIVIG is reported as 16 to 32 X.

Each substance was assayed against hemagglutinin (HA) of influenza B/Washington/02/2019 B-Vic (influenza B virus B/Washington/02/2019) (assay: cell-based or functional assay).

Going from SAB-176 Lot 3 (antibody) to negative control IgG (antibody), the HAI titer falls from 64 titer to < 1 titer.

SAB-176 Lot 3 (antibody) was tested, and the HAI titer ratio of SAB-176 to hIVIG was 8 to 16 X.

The substances below were run against hemagglutinin (HA) of influenza A/Brisbane/02/2018 H1N1 (influenza A virus A/Brisbane/02/2018 (H1N1)) (assay: cell-based or functional assay).

Going from SAB-176 Lot 3 (antibody) to negative control IgG (antibody), the HAI titer falls from 512 titer to < 1 titer.

For SAB-176 Lot 3 (antibody), the HAI titer ratio of SAB-176 to hIVIG was 16 to 32 X.

Each substance was assayed against hemagglutinin (HA) of influenza A/Hong Kong/4801/2014 H3N2 (influenza A virus A/Hong Kong/4801/2014 (H3N2)) (assay: cell-based or functional assay).

Compared with SAB-176 (antibody), negative control IgG (antibody) is lower in HAI titer: 1024 titer for the first, < 1 titer for the second.

What follows are substances tested against hemagglutinin (HA) of influenza B/California/12/2015 B-Yam (influenza B virus B/California/12/2015) (assay: cell-based or functional assay).

Compared with SAB-176 Lot 3 (antibody), negative control IgG (antibody) is lower in HAI titer: 128 titer for the first, < 1 titer for the second.

In the case of SAB-176 Lot 3 (antibody), the HAI titer ratio of SAB-176 to hIVIG is reported as 16 to 32 X.

Source: US20240279315A1 (priority 2023, published 2024)
